Where no end group is shown, it is not given here. The star is where a group is joined. Biotin = O=C1N[C@H]2[C@H](CS[C@H]2CCCCC(=O)*)N1; Ahx = NCCCCCC(=O)O
T1: 82-96aa
T1 construct: also called alpha-synuclein peptide 82-96
T1 peptide: {Biotin-Ahx}-VEGAGSIAAATGFVK

T2: 118-132aa
T2 peptide: {Biotin-Ahx}-VDPDNEAYEMPSEEG

T3: 127-140aa
T3 peptide: {Biotin-Ahx}-MPSEEGYQDYEPEA

T4: 1-14aa
T4 construct: also called alpha-synuclein peptide 1-14
T4 peptide: MDVFMKGLSKAKEG-biotin

T5: 1-15aa
T5 construct: also called alpha-synuclein peptide 1-15
T5 peptide: {Biotin-Ahx}-MDVFMKGLSKAKEGV

T6: 10-24aa
T6 construct: also called alpha-synuclein peptide 10-24
T6 peptide: {Biotin-Ahx}-KAKEGVVAAAEKTKQ

T7: 46-60aa
T7 construct: also called alpha-synuclein peptide 46-60
T7 peptide: {Biotin-Ahx}-EGVVHGVATVAEKTK

T8: 91-105aa
T8 peptide: {Biotin-Ahx}-ATGFVKKDQLGKNEE

T9: 64-78aa
T9 construct: also called alpha-synuclein peptide 64-78
T9 peptide: {Biotin-Ahx}-TNVGGAVVTGVTAVA


Tests used:
82-96aa = target: T1, 82-96aa; assay: indirect ELISA on biotinylated 15-mer peptide
118-132aa [1] = target: T2, 118-132aa; assay: indirect ELISA on biotinylated 15-mer peptide
127-140aa = target: T3, 127-140aa; assay: indirect ELISA on biotinylated 15-mer peptide
1-14aa = target: T4, 1-14aa; assay: indirect ELISA on biotinylated 15-mer peptide
1-15aa = target: T5, 1-15aa; assay: indirect ELISA on biotinylated 15-mer peptide
10-24aa = target: T6, 10-24aa; assay: indirect ELISA on biotinylated 15-mer peptide
46-60aa [2] = target: T7, 46-60aa; assay: indirect ELISA on biotinylated 15-mer peptide
91-105aa [3] = target: T8, 91-105aa; assay: indirect ELISA on biotinylated 15-mer peptide, supernatant 1/100
[4] = target: T10, monomeric alpha-synuclein (UniProt P37840 1-140); assay: SPR, captured mAb
Description: (§1) Non-covalent immobilization of alpha-synuclein antibodies was performed using a target immobilization method of 2000 response units (RU). Antibodies were diluted in 10 mM sodium acetate pH 5.5 (GE Healthcare, BR-1003-52) to a final concentration of 5 μg/mL.
(§2) Binding affinity of alpha-synuclein antibodies to monomeric or fibrillar alpha-synuclein species was performed using a single-cycle kinetics method. The instrument was primed with 1×HBS-P+ buffer (10× stock from GE Healthcare, BR-1003-52 diluted in Milli-Q water). Injections of monomeric alpha-synuclein (aSyn) (Boston Biochem, SP-485), increasing in concentration from 0.62-50 nM prepared from serial 2-fold dilutions, were performed with contact times of 300 sec/injection at a flow rate of 30 μL/min. A dissociation phase of 900 sec followed the final 50 nM injection. Regeneration of the sensor to the goat anti-mouse antibody layer was achieved using 3 regenerations of 10 mM Glycine pH 1.7. […] Regeneration of the sensor to the goat anti-mouse antibody layer was achieved using 3 regenerations of 10 mM Glycine pH 1.7. Results obtained from single-cycle kinetics were evaluated by Biacore T200 evaluation software with 1:1 binding homogenous Langmuir model (with a global Rmax) with Cycle 5 as a blank subtraction. The following kinetic parameters were obtained: on-rate (ka), off-rate (kd), affinity constant (KD, ratio of kd by ka), maximum response (Rmax), and goodness of fit (Chi2).
(§3) Non-covalent capture of the alpha-synuclein antibodies was performed in three separate runs.

alpha-synuclein fibrils [5] = target: T11, alpha-synuclein fibrils (UniProt P37840 1-140); assay: SPR, captured mAb
Description: as §1, §2, §3

alpha-synuclein fibrils [6] = target: T11, alpha-synuclein fibrils; assay: SPR, captured mAb; alpha-synuclein fibrils
Description: Any non-covalently bound antibodies were removed by three successive regenerations of 10 mM Glycine pH 1.7 (GE Healthcare, 28-9950-84). Immobilization levels were evaluated following ethanolamine capping (Bound) and finally following regeneration (Final). Non-covalent immobilization of alpha-synuclein antibodies was performed using a target immobilization method of 2000 response units (RU). Antibodies were diluted in 10 mM sodium acetate pH 5.5 (GE Healthcare, BR-1003-52) to a final concentration of 5 μg/mL.
Binding affinity of alpha-synuclein antibodies to monomeric or fibrillar alpha-synuclein species was performed using a single-cycle kinetics method. The instrument was primed with 1×HBS-P+ buffer (10× stock from GE Healthcare, BR-1003-52 diluted in Milli-Q water). Injections of monomeric alpha-synuclein (aSyn) (Boston Biochem, SP-485), increasing in concentration from 0.62-50 nM prepared from serial 2-fold dilutions, were performed with contact times of 300 sec/injection at a flow rate of 30 μL/min. A dissociation phase of 900 sec followed the final 50 nM injection. Regeneration of the sensor to the goat anti-mouse antibody layer was achieved using 3 regenerations of 10 mM Glycine pH 1.7. […] Results obtained from single-cycle kinetics were evaluated by Biacore T200 evaluation software with 1:1 binding homogenous Langmuir model (with a global Rmax) with Cycle 5 as a blank subtraction. […]

[7] = target: T10, monomeric alpha-synuclein; assay: SPR, captured mAb; alpha-synuclein monomers
Description: as §1
Binding affinity of alpha-synuclein antibodies to monomeric or fibrillar alpha-synuclein species was performed using a single-cycle kinetics method. The instrument was primed with 1×HBS-P+ buffer (10× stock from GE Healthcare, BR-1003-52 diluted in Milli-Q water). Injections of monomeric alpha-synuclein (aSyn) (Boston Biochem, SP-485), increasing in concentration from 0.62-50 nM prepared from serial 2-fold dilutions, were performed with contact times of 300 sec/injection at a flow rate of 30 μL/min. A dissociation phase of 900 sec followed the final 50 nM injection. Regeneration of the sensor to the goat anti-mouse antibody layer was achieved using 3 regenerations of 10 mM Glycine pH 1.7. […] Regeneration of the sensor to the goat anti-mouse antibody layer was achieved using 3 regenerations of 10 mM Glycine pH 1.7. Results obtained from single-cycle kinetics were evaluated by Biacore T200 evaluation software with 1:1 binding homogenous Langmuir model (with a global Rmax) with Cycle 5 as a blank subtraction. […]

91-105aa [8] = target: T8, 91-105aa; assay: indirect ELISA on biotinylated 15-mer peptide
118-132aa [9] = target: T2, 118-132aa; assay: indirect ELISA on biotinylated 15-mer peptide, supernatant 1/100
64-78aa = target: T9, 64-78aa; assay: indirect ELISA on biotinylated 15-mer peptide
46-60aa [10] = target: T7, 46-60aa; assay: indirect ELISA on biotinylated 15-mer peptide, supernatant 1/100
alpha-synuclein seeds = alpha-synuclein seeds (UniProt P37840 1-140); assay: cell-based or functional assay

Binder	binding result (82-96aa)	binding result (118-132aa [1])	binding result (127-140aa)	binding result (1-14aa)	binding result (1-15aa)	binding result (10-24aa)	binding result (46-60aa [2])	binding result (64-78aa)	also measured
ACI-7079-2501B11-Ab3 (antibody, V domains shown, mouse hybridoma mAb; VH/VL only; also called 2501B11C7) VH: QVQLQQSGPELVKPGASVKISCKASGYAFSSFWMNWMKQRPGKGLEWIGRIYPGDGDAHYNGEFKGRATLTADKSSSTAYMQLSSLTSEDSAVYFCARKGDFYGSNYDYWGQGTTLTVSS VL: QAVVTQESALTTSPGETVTLTCRSSTGAVTTSNYANWVQEKPDHLFTGLIGGTNNRAPGVPARFSGSLIGDKAALTITGAQTEDEAIYFCALWYSNHLVFGGGTRLTVL	no binding (tested: supernatant 1/100)	no binding (tested: supernatant 1/100)	no binding (tested: supernatant 1/100)	no binding (tested: supernatant 1/100)	no binding (tested: supernatant 1/100)	no binding (tested: supernatant 1/100)	no binding (tested: supernatant 1/100)		binding result (91-105aa [3]): binds
ACI-7067-4813-R4A-G7-rec1 (antibody, mouse IgG2a, V domains shown, from phage display of immunised mice; positive clones expressed recombinantly as murine IgG2a; VH/VL only; also called ACI-7067-R4A-G7-Ab-1) VH: EVQLEESGGGLVHPKGSLKLSCAASGFTFNSYAMHWVRQAPGKGLEWVARIRSKRSNYATYYADSVKDRFTISRDDSQSMVYLEMNNLEAEDTATYYCVRGGREAMDFWGQGTSVTVSS VL: QAVVTQESALTTSPGETVTLTCRSSTGAVTTSNYANWVQEKPDHLFTGLIGGTNNRAPGVPARFSGSLIGDKAALTITGAQTEDEAIYFCALWYSNHWVFGGGTKLTVL									koff [4]: 0.0737 s⁻¹; kon [4]: 735000 M⁻¹ s⁻¹; koff (alpha-synuclein fibrils [5]): 1.34e-07 s⁻¹; kon (alpha-synuclein fibrils [5]): 4760 M⁻¹ s⁻¹; Kd (alpha-synuclein fibrils [6]): 0.041 nM; Kd [7]: 97 nM
ACI-7079-2606A6-Ab2 (antibody, V domains shown, mouse hybridoma mAb; VH/VL only; also called 2606A6D5) VH: QVQLQQSGPELVKPGASVKISCKASGFAFSSSWMNWVKQRPGKGLEWVGRIFPGDGDTNYDRKFKDKATLTADKSSSTAYMQLSSLTSEDSAVYFCARWTGGYDWFAYWGQGTLVTVSA VL: DIVLTQSPASLAVSLGQRATISCRASQSVSTSNYNYLHWYQQKPGQPPKLLITYASNLESGVPARFSGSGSGTDFTLNIHPVEEGDTATYYCQHSWEIPLTFGAGTKLELK	no binding (tested: supernatant 1/100)	no binding (tested: supernatant 1/100)	no binding (tested: supernatant 1/100)	no binding (tested: supernatant 1/100)	no binding (tested: supernatant 1/100)	no binding (tested: supernatant 1/100)	no binding (tested: supernatant 1/100)		binding result (91-105aa [3]): binds
ACI-7079-2506E2-Ab2 (antibody, V domains shown, mouse hybridoma mAb; VH/VL only; also called 2506E2G4) VH: QVQLQQSGPELVRPGASVKISCKASGYAFSNSWMNWVKQRPGKGLEWIGRIFPGDGDTYYDGKFKGKVKLTTDKFSNTAYMQLRSLTSEDSAVYFCARWGGTNDEWFAHWGQGTLVTVSV VL: DIVLTQSPASLTVSLGQRATISCRASQSVSTSRNSYMHWYQQKPRQPPKLLIKYASNLESGVPARFSGSGSGADFTLNIHPVEEEDTATYYCQHSWDIPLTFGTGTKLELS	no binding (tested: supernatant 1/100)		no binding (tested: supernatant 1/100)	no binding (tested: supernatant 1/100)	no binding (tested: supernatant 1/100)	no binding (tested: supernatant 1/100)	no binding (tested: supernatant 1/100)		binding result (91-105aa [8]): no binding (tested: supernatant 1/100); binding result (118-132aa [9]): binds
ACI-7067-1107G5-Ab2 (antibody, V domains shown, mouse hybridoma mAb; VH/VL only; also called 1107G5B6) VH: QVQLQQPGTELVKPGASVKLSCKASGYTFTKYWMHWVKQRPGQGLEWIGNINPNNGDTNYNEKFKSKATLTVDKSSSTAYMQLSSLTSEDSAVYYCAIAMDYWGQGTSVTVSS VL: DIQMTQSPSSLSAFLGERVSLTCRASQDIGNNLNWFQQEPDGTIKRLIYATSSLDSGVPKRFSGSRSGSEYSLTISSLESEDFVDYYCLQFGSSPLTFGAGTKLELK	no binding (tested: supernatant 1/100)	no binding (tested: supernatant 1/100)	no binding (tested: supernatant 1/100)					no binding (tested: supernatant 1/100)	binding result (46-60aa [10]): binds
ACI-7067-1111B12-Ab2 (antibody, V domains shown, mouse hybridoma mAb; VH/VL only; also called 1111B12H10) VH: QVQLLQPGTALVMPGASVKLSCKASGYTFTTYWMHWVKQRPGQGLEWIGNINPINGGSNYNEKFKSKASLTVDKSSSTAYMQLSSLTSEDSAVYYCVIAMDYWGQGTSVTVSS VL: DIQMTQSPSSLSASLGERVSLTCRASQDIGISLNWFQQEPDGTIKRLIYATSSLDSGVPKRFSGNRSGSDYSLTISSLESEDFADYYCLQFASSPLTFGAGTKLELK	no binding (tested: supernatant 1/100)	no binding (tested: supernatant 1/100)	no binding (tested: supernatant 1/100)					no binding (tested: supernatant 1/100)	binding result (46-60aa [10]): binds
ACI-8032-6313G2-Ab1 (antibody, V domains shown, mouse hybridoma mAb; VH/VL only; also called 6313G2A10) VH: EVQLQQSGPELVKPGASVKISCKASGYTFTDYYMNWVKQSHGKSLEWIGDIDPNNGVTSYSQKFKGKATLTVDKSSSTAYMELRSLTSEDSAVYYCARTGYYGTSLYYAMDYWGQGTSVTVSS VL: DIVMSQSPSSLAVSAGEKVTMNCKSSQSLLNSRTRKNYLAWYQQKPGQSPKLLIYWASTRESGVPDRFIGSGSGTGFTLTISSVQAEDLAVYYCKQSYDLWTFGGGTKLEIK									koff [4]: 0.000541 s⁻¹; kon [4]: 33500 M⁻¹ s⁻¹; koff (alpha-synuclein fibrils [5]): 0.000829 s⁻¹; kon (alpha-synuclein fibrils [5]): 338 M⁻¹ s⁻¹; Kd (alpha-synuclein fibrils [6]): 2460 nM; Kd [7]: 16.2 nM
ACI-7067-1101C8-Ab2 (antibody, V domains shown, mouse hybridoma mAb; VH/VL only; also called 1101C8F7) VH: EVQLVESGGGLVQPKGSLKLSCAASGFSFNIYAMNWVRQAPGKGLEWVARIRSKSNNYATYYADSVKDRFTISRADSESMLYLQMNNLKTEDTAMYYCVRVGLRFYAMDYWGQGTSVTVSS VL: DVLMTQTPLSLPVSLGDQASISCRSSQSIVHSNGNTYLEWYLQKPGQSPKLLIYKVSNRFSGVPDRFSGSGSGTDFTLKISRVEAEDLGVYYCFQGSQGPLTFGAGTKLELK	no binding (tested: supernatant 1/100)		no binding (tested: supernatant 1/100)				no binding (tested: supernatant 1/100)	no binding (tested: supernatant 1/100)	aggregation half-time (τ1/2) of seeded alpha-synuclein aggregation, ThT; no antibody 26.9 hours (alpha-synuclein seeds): 64 h; binding result (118-132aa [9]): binds
